The text below walks through data of patent US7838294B2, “Inhibitors of the JNK signal transduction pathway and methods of use” (University of Massachusetts, priority 1997, dated 2010).

In one experiment the target is p38 (Homo sapiens, UniProt Q16539). The experiment is described as follows: Co-immunoprecipitation of JIP-1 with p38 (specificity control). The experiment is classed as binding. As to conditions: control experiment.
The target of the next experiment is ERK2 (Homo sapiens, UniProt P28482). Briefly: Co-immunoprecipitation of JIP-1 with ERK2 (specificity control). The experiment is classed as binding. Conditions: control experiment.
ERK2, sequence (P28482 whole entry, species assumed): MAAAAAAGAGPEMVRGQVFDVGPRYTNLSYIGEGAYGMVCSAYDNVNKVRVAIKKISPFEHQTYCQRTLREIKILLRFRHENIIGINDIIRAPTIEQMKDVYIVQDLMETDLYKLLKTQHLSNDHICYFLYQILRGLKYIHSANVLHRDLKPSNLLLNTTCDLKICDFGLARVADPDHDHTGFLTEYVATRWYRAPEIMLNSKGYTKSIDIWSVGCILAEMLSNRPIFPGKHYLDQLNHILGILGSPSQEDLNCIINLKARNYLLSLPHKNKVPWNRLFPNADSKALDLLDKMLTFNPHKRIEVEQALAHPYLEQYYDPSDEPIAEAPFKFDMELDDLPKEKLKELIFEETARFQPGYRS
The target in experiment [1] is T1, p38 MAP kinase (Homo sapiens, UniProt Q16539).
T1 construct: expressed in transfected cells
T1 sequence (Q16539 whole entry): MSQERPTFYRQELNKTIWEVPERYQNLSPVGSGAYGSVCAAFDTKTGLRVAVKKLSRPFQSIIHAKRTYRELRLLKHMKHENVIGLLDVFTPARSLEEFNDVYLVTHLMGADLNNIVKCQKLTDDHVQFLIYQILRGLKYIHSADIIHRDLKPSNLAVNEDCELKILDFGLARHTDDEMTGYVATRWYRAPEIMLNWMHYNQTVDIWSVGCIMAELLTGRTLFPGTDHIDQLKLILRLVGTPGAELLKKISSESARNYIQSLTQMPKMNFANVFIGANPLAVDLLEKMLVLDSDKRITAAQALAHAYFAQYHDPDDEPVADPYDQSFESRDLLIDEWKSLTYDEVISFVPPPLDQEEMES
The experiment is described as follows: GST-fusion pull-down from cell lysates, Flag immunoblot: p38 MAP kinase. The experiment is classed as binding. As to conditions: control experiment, Flag-p38 lysate. The protocol:
To test whether JIP-1 binding to JNK is also isoform-dependent, a binding assay was utilized. Cell lysates (1 ml in TLB) containing JNK1, JNK2, or p38 MAP kinase, each tagged with the Flag epitope, were incubated with 5 μg GST-fusion proteins pre-bound to 10 μl glutathione-Sepharose. The GST fusion proteins used contain residues 127-202 (SEQ ID NO:15), 203-281 (SEQ ID NO:16), 164-240 (SEQ ID NO:17), or 127-281 (SEQ ID NO:4) of JIP-1. The GST-ATF2 fusion protein contains residues 1-109 of ATF2, and the GST-Jun fusion protein contains residues 1-79 of c-Jun. After incubation for one hour at 4° C. and three washes with TLB, bound proteins were detected by protein immunoblot analysis with the M2 monoclonal antibody, which is specific for the Flag epitope. Dérijard, et al., supra; Sluss et al., supra; Gupta et al., supra. […] This finding is consistent with the results of previous studies. In contrast, when GST-JIP-1 fusion proteins containing residues 127-202 or 127-281 of JIP-1 were tested in the assay, these proteins bound both JNK1 and JNK2.
(In general: In western blotting, separated proteins are transferred to a membrane and probed.)

Experiment [2] deals with T1, p38 MAP kinase. The experiment is described as follows: Immunofluorescence: subcellular distribution of p38 MAP kinase on JIP-1 expression. The experiment is classed as cell-based.
Experiment [3] relates to c-Jun transcriptional activity. The experiment is described as follows: GAL4 luciferase reporter assay in CHO cells: GAL4-c-Jun. The experiment is classed as cell-based, Chinese hamster. Conditions: FIG. 4B. The protocol:
In these experiments, CHO cells were cotransfected with constructs encoding the transcription factors and JIP-1 using previously described methods. Dérijard et al., supra; Sluss et al., supra; Gupta et al., supra. A luciferase reporter plasmid was used to monitor the expression of the transcription factors. Transfection efficiency was determined using a β-galactosidase expression vector. Constructs used in these experiments included GAL4 fusions with the c-myc, Sp1 and VP16 activation domains (described in Whitmarsh et al., Science, 269:403 (1995); Davis, Science, 269:403 (1995); Gille et al., Curr. Biol., 5:1191 (1995)). […]
Transfected cells were activated by treatment with 10% (v/v) fetal calf serum, and luciferase and β-galactosidase activities were measured in cell lysates at 48 hours post-transfection. The data are presented as the ratio of luciferase activity (light units) to β-galactosidase activity (OD units) measured in the cell extracts (mean±SEM (n=3)), and are normalized to the luciferase activity detected in the absence of JBD (FIGS. 4A and 4B) or ATF2 (FIG. 4C).

The target in another experiment is T2, JNK (Homo sapiens, UniProt P45983).
T2 construct: expressed in transfected cells; host or cells: COS-1 cells (co-immunoprecipitation)
T2 sequence (P45983 1-384 isoform P45983-2): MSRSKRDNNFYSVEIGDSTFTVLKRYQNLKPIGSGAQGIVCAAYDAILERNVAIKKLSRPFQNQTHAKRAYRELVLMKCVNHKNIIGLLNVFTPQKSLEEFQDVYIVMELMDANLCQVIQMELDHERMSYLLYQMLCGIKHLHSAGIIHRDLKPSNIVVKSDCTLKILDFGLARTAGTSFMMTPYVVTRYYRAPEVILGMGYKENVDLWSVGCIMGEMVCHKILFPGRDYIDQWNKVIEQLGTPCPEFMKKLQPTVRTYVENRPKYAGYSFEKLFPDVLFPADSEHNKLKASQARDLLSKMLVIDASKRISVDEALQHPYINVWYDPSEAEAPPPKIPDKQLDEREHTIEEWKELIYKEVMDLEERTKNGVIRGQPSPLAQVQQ
The experiment is described as follows: Immunofluorescence: subcellular distribution of JNK on JIP-1 expression. The experiment is classed as cell-based. As to conditions: HA-JNK1 with Flag-JIP-1; control and UV-irradiated cells. The protocol:
The subcellular distribution of JIP-1 was analyzed by performing indirect immunofluorescence on JIP-1-expressing cells. In these experiments, the cells were grown on coverslips, fixed with 4% paraformaldehyde, permeabilized with 0.25% Triton X-100, and processed for immunofluorescence microscopy. JIP-1 was detected in the cytoplasm, but not the nucleus, of control and UV-irradiated cells. In contrast, JNK is detected in both the cytoplasmic and nuclear compartments.
It is likely that it is JNK in the nucleus which is involved in the regulation of gene expression. Since JIP-1 is cytoplasmic, it was unclear how it could inhibit the nuclear function of JNK. To investigate the mechanism of JIP-1 action, the distribution of JNK was examined in cells that had been transfected with either hemagglutinin (HA)-tagged JNK1 (HA-JNK1) alone, or HA-JNK1 and Flag-tagged JIP-1 (Flag-JIP-1). In these experiments, the cells were exposed to a potent JNK activator (40 J/m^2 UV-C) for one hour prior to processing for immunofluorescence. The primary antibodies used were rabbit anti-HA (12CA5; Boehringer Mannheim), which recognizes HA-tagged JNK1; and mouse monoclonal anti-Flag (M2; IBI-Kodak), which recognizes Flag-tagged JIP-1. The secondary antibodies were Texas Red-goat anti-mouse Ig and fluoroscein isothiocyanate-conjugated donkey anti-rabbit Ig (Jackson Immunoresearch). […]

p38, sequence (Q16539 whole entry): as the sequence (Q16539 whole entry) above

B1: JIP-1: 660 amino acid murine cytoplasmic protein that specifically binds JNK (protein)
chain: MAERESGLGGGAASPPAASPFLGLHIASPPNFRLTHDISLEEFEDEDLSEITDECGISLQCKDTLSLRPPRAGLLSAGSSGSAGSRLQAEMLQMDLIDAAGDTPGAEDDEEEEDDELAAQRPGVGPPKAESNQDPAPRSQGQGPGTGSGDTYRPKRPTTLNLFPQVPRSQDTLNNNSLGKKHSWQDRVSRSSSPLKTGEQTPPHEHICLSDELPPQGSPVPTQDRGTSTDSPCRRSAATQMAPPSGPPATAPGGRGHSHRDRIHYQADVRLEATEEIYLTPVQRPPDPAEPTSTFMPPTESRMSVSSDPDPAAYSVTAGRPHPSISEEDEGFDCLSSPERAEPPGGGWRGSLGEPPPPPRASLSSDTSALSYDSVKYTLVVDEHAQLELVSLRPCFGDYSDESDSATVYDNCASASSPYESAIGEEYEEAPQPRPPTCLSEDSTPDEPDVHFSKKFLNVFMSGRSRSSSAESFGLFSCVINGEEHEQTHRAIFRFVPRHEDELELEVDDPLLVELQAEDYWYEAYNMRTGARGVFPAYYAIEVTKEPEHMAALAKNSCVLEISVRGVKIGVKADDALEAKGNKCSHFFQLKNISFCGYHPKNNKYFGFITKHPADHRFACHVFVSEDSTKALAESVGRAFQQFYKQFVEYTCPTEDIYLE
On to B1, for which, in the experiment with p38, the “co-immunoprecipitation of JIP-1 with p38” value is given as “did not co-immunoprecipitate”. Besides, in the experiment with ERK2, the “co-immunoprecipitation of JIP-1 with ERK2” value was “did not co-immunoprecipitate”. Moreover, the “binding to p38 MAP kinase” value in the experiment with p38 MAP kinase [1] is listed as “did not bind”. In addition, in the experiment with p38 MAP kinase [2], the “subcellular distribution of p38 MAP kinase” value was “no significant effect”. Besides, the “basal transcriptional activity of c-Jun mutated at JNK phosphorylation sites” value in experiment [3] (GAL4-c-Jun (S63A/S73A)) was “not markedly inhibited”. Besides, the c-Jun transcriptional activity result in experiment [3] (wild type GAL4-c-Jun, CHO cells) was “Significant inhibition”. In addition, the “amount of nuclear JNK” value with JNK was “reduces”.
